Reference: patent US20080166749A1, “Fluorescent Protein Sensors of Post-Translational Modifications” (INVITROGEN CORPORATION, priority 1998, published 2008)

Tested on: activated recombinant MAP kinase
Test: Phosphorylation of GFP Erk sensors by MAP kinase, ^32P incorporation
Type: biochemical
Conditions: 10 μM substrate, 100 ng MAP kinase, 30 minutes at 30° C.; mean ± standard deviation of triplicates
Text: Experiments were terminated and samples processed as described previously in subsection D.4. Results presented in Table X represent means of triplicate determinations ±standard deviations of ^32P-incorporation in washed pellets as described earlier.

B1: Myelin Basic Protein: a well-characterized substrate of Erk kinase (protein, UniProt P02687 1-169, looked up)
Myelin basic protein: AAQKRPSQRSKYLASASTMDHARHGFLPRHRDTGILDSLGRFFGSDRGAPKRGSGKDGHHAARTTHYGSLPQKAQGHRPQDENPVVHFFKNIVTPRTPPPSQGKGRGLSLSRFSWGAEGQKPGFGYGGRASDYKSAHKGLKGHDAQGTLSKIFKLGGRDSRSGSPMARR
Q: How did the “^32P-Incorporation (CPM)” value turn out when B1 was run?
A: The value was 33361 ± 477 CPM.
